# According to the RNAGym collection of RNA variant scans (doi:10.1093/molbev/msab373):
# B1: Azoarcus group I ribozyme (parent)
# chain: GUGCCUUGCGCCGGGAAACCACGCAAGGGAUGGUGUCAAAUUCGGCGAAACCUAAGCGCCCGCCCGGGCGUAUGGCAACGCCGAGCCAAGCUUCGGCGCCUGCGCCGAUGAAGGUGUAGAGACUAGACGGCACCCACCUAAGGCAAACGCUAUGGUGAAGGCAUAGUCCAGGGAGUGGCGAAAGUCACACAAACCGG
# Variants of: B1
# Experiment: reverse-splicing fitness (ratio to wild type); higher = more active; in vitro selection; Mg2+ level not given
# How it was run: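 An in vitro group I ribozyme library with randomized positions was T7-transcribed and gel-purified. In triplicate, 10 pmol RNA in EPPS pH 7.5 was reacted with 50 pmoles of a 30-nt RNA substrate for 1 h at 37 °C across several added MgCl2 levels (1–48 mM), then stopped with EDTA. Products were reverse transcribed from a substrate-complementary primer, PCR-amplified and sequenced (HiSeq 4000). Fitness is a variant's read proportion after selection over that before, normalised to wild type.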
row,Variant,reverse-splicing fitness
1,C82G A111G A120U A145G C150A C169U U176C,0.00452
2,C82G A111G A120U A145G C150A C169U U176A,0.00563
3,C82G A111G A120U A145G C150A C169U U176G,0.00259
4,C82G A111G A120U A145U C150A C169A U176G,0.00211
5,C82G A111G A120U A145U C150A C169A U176A,0.00256
6,C82G A111G A120U A145U C150A C169A U176C,0.00223
7,C82G A111G A120U A145G C150U C169G U176C,0.00595
8,C82G A111G A120U A145G C150U C169G U176A,0.0105
9,C82G A111G A120U A145G C150U C169G U176G,0.00241
10,C82G A111G A120G A145U C150A U176G,0.00563
11,C82G A111G A120G A145U C150A U176C,0.0191
12,C82G A111G A120G A145U C150A U176A,0.014
13,C82G A111G A120U A145G C150G C169A,0.00921
14,C82G A111G A120U A145G C150G C169U,0.00737
15,C82G A111G A120U A145G C150G C169G,0.00722
16,C82G A111G A120G A145U C150A C169G U176G,0.00454
17,C82G A111G A120G A145U C150A C169G U176A,0.017
18,C82G A111G A120G A145U C150A C169G U176C,0.0174
19,C82G A111G A120U A145G,0.0663
20,C82G A111G A120U A145U,0.0713
21,C82G A111G A120U A145C,0.0668

row,Variant,reverse-splicing fitness
1,C82G A111G A120G A145U C150U C169U,0.0114
2,C82G A111G A120G A145U C150U C169G,0.0148
3,C82G A111G A120G A145U C150U C169A,0.0123
4,C82G A111G A120U A145C C150A C169U U176C,0.00238
5,C82G A111G A120U A145C C150A C169U U176G,0.0019
6,C82G A111G A120U A145C C150A C169U U176A,0.00266
7,C82G A111G A120G A145U C169A U176A,0.0151
8,C82G A111G A120G A145U C169A U176C,0.0152
9,C82G A111G A120G A145U C169A U176G,0.00446
10,C82G A111G A120U A145C C150A C169A U176G,0.00204
11,C82G A111G A120U A145C C150A C169A U176A,0.00209
12,C82G A111G A120U A145C C150A C169A U176C,0.00213
13,C82G A111G A120G C150A C169U U176G,0.00912
14,C82G A111G A120G C150A C169U U176C,0.0176
15,C82G A111G A120G C150A C169U U176A,0.021
16,C82G A111G A120U A145U C169G U176A,0.0022
17,C82G A111G A120U A145U C169G U176C,0.00235
18,C82G A111G A120U A145U C169G U176G,0.00156
19,C82G A111G A120U A145G C169G,0.00538
20,C82G A111G A120U A145G C169U,0.00538
21,C82G A111G A120U A145G C169A,0.00466

row,Variant,reverse-splicing fitness
1,C82G A111G A120U A145C C169G U176C,0.00181
2,C82G A111G A120U A145C C169G U176A,0.00244
3,C82G A111G A120U A145C C169G U176G,0.00165
4,C82G A111G A120U A145C C150G U176C,0.00396
5,C82G A111G A120U A145C C150G U176A,0.00327
6,C82G A111G A120U A145C C150G U176G,0.00247
7,C82G A111G A120U A145C C150G C169A,0.00256
8,C82G A111G A120U A145C C150G C169U,0.00296
9,C82G A111G A120U A145C C150G C169G,0.0027
10,C82G A111G A120G A145U C150A C169A U176A,0.0175
11,C82G A111G A120G A145U C150A C169A U176C,0.0159
12,C82G A111G A120G A145U C150A C169A U176G,0.00495
13,C82G A111G A120U A145C C169G,0.00347
14,C82G A111G A120U A145C C169U,0.00478
15,C82G A111G A120U A145C C169A,0.00211
16,C82G A111G A120G A145U C150G,0.00774
17,C82G A111G A120G A145U C150U,0.0155
18,C82G A111G A120G C150G C169G U176C,0.00628
19,C82G A111G A120G C150G C169G U176A,0.00837
20,C82G A111G A120G C150G C169G U176G,0.0053
21,C82G A111G A120U A145C C150G C169G U176A,0.00278

row,Variant,reverse-splicing fitness
1,C82G A111G A120U A145C C150G C169G U176G,0.00196
2,C82G A111G A120U A145C C150G C169G U176C,0.00228
3,C82G A111G A120U A145C C150U C169G,0.00281
4,C82G A111G A120U A145C C150U C169U,0.00328
5,C82G A111G A120U A145C C150U C169A,0.00231
6,C82G A111G A120U A145C C169A U176A,0.00186
7,C82G A111G A120U A145C C169A U176C,0.00168
8,C82G A111G A120U A145C C169A U176G,0.00182
9,C82G A111G A120U A145C C150U C169A U176A,0.00272
10,C82G A111G A120U A145C C150U C169A U176G,0.00197
11,C82G A111G A120U A145C C150U C169A U176C,0.00184
12,C82G A111G A120G C150A C169G U176A,0.0239
13,C82G A111G A120G C150A C169G U176G,0.00621
14,C82G A111G A120G C150A C169G U176C,0.0263
15,C82G A111G A120U A145G C150U C169A U176A,0.00839
16,C82G A111G A120U A145G C150U C169A U176C,0.00519
17,C82G A111G A120U A145G C150U C169A U176G,0.00254
18,C82G A111G A120G A145U C169U U176C,0.0161
19,C82G A111G A120G A145U C169U U176G,0.00384
20,C82G A111G A120G A145U C169U U176A,0.0191
